B1: Retinoic acid receptor RXR-alpha, residues 132 to 208; numbered along this chain, P19793 (parent)
chain: KHICAICGDRSSGKHYGVYSCEGCKGFFKRTVRKDLTYTCRDNKDCLIDKRQRNRCQYCRYQKCLAMGMKREAVQEE

± gives the uncertainty stated by the source.

This series covers variants of B1. Kind of series: abundance fitness (aPCA) (normalised: wild type 0, dead -1); higher = more abundant; growth selection in yeast, the domain comes from the species named. The note with it: Homo sapiens.
Consider KHICAICGDRSSGKHYGYYSCEGCKGFFKRTVRKDLTYTCRDNKDCLIDKRQRNRCQYCRYQKCLAMGMKREAVQEE [V18Y], for which the abundance fitness was -0.262 ± 0.038.

KHICAICGDRSSGKHYGAYSCEGCKGFFKRTVRKDLTYTCRDNKDCLIDKRQRNRCQYCRYQKCLAMGMKREAVQEE [V18A]: the abundance fitness was -0.133 ± 0.035.

On to KHICAICGDRSSGKHYGPYSCEGCKGFFKRTVRKDLTYTCRDNKDCLIDKRQRNRCQYCRYQKCLAMGMKREAVQEE [V18P], for which the abundance fitness was -0.18 ± 0.038.

For KHICAICGDRSSGKHYGSYSCEGCKGFFKRTVRKDLTYTCRDNKDCLIDKRQRNRCQYCRYQKCLAMGMKREAVQEE [V18S], the abundance fitness is -0.328 ± 0.034.

KHICAICGDRSSGKHYGFYSCEGCKGFFKRTVRKDLTYTCRDNKDCLIDKRQRNRCQYCRYQKCLAMGMKREAVQEE [V18F]: the abundance fitness was -0.144 ± 0.044.

As for KHICAICGDRSSGKHYGNYSCEGCKGFFKRTVRKDLTYTCRDNKDCLIDKRQRNRCQYCRYQKCLAMGMKREAVQEE [V18N], the abundance fitness is -0.574 ± 0.12.

For KHICAICGDRSSGKHYGDYSCEGCKGFFKRTVRKDLTYTCRDNKDCLIDKRQRNRCQYCRYQKCLAMGMKREAVQEE [V18D], the abundance fitness was -0.205 ± 0.047.

On to KHICAICGDRSSGKHYGIYSCEGCKGFFKRTVRKDLTYTCRDNKDCLIDKRQRNRCQYCRYQKCLAMGMKREAVQEE [V18I], for which the abundance fitness was -0.142 ± 0.061.

As to KHICAICGDRSSGKHYGLYSCEGCKGFFKRTVRKDLTYTCRDNKDCLIDKRQRNRCQYCRYQKCLAMGMKREAVQEE [V18L], the abundance fitness was -0.141 ± 0.029.

As for KHICAICGDRSSGKHYGHYSCEGCKGFFKRTVRKDLTYTCRDNKDCLIDKRQRNRCQYCRYQKCLAMGMKREAVQEE [V18H], the abundance fitness was -0.356 ± 0.044.

With KHICAICGDRSSGKHYGGYSCEGCKGFFKRTVRKDLTYTCRDNKDCLIDKRQRNRCQYCRYQKCLAMGMKREAVQEE [V18G], the abundance fitness was found to be 0.013 ± 0.035.

As for KHICAICGDRSSGKHYGVYICEGCKGFFKRTVRKDLTYTCRDNKDCLIDKRQRNRCQYCRYQKCLAMGMKREAVQEE [S20I], the abundance fitness was 0.019 ± 0.037.

For the variant KHICAICGDRSSGKHYGVYGCEGCKGFFKRTVRKDLTYTCRDNKDCLIDKRQRNRCQYCRYQKCLAMGMKREAVQEE [S20G], the abundance fitness was 0.065 ± 0.021.

For KHICAICGDRSSGKHYGVYECEGCKGFFKRTVRKDLTYTCRDNKDCLIDKRQRNRCQYCRYQKCLAMGMKREAVQEE [S20E], the abundance fitness is -0.202 ± 0.031.

In the case of KHICAICGDRSSGKHYGVYACEGCKGFFKRTVRKDLTYTCRDNKDCLIDKRQRNRCQYCRYQKCLAMGMKREAVQEE [S20A], the abundance fitness was determined as 0.047 ± 0.025.

KHICAICGDRSSGKHYGVYCCEGCKGFFKRTVRKDLTYTCRDNKDCLIDKRQRNRCQYCRYQKCLAMGMKREAVQEE [S20C]: the abundance fitness is 0.049 ± 0.031.

For KHICAICGDRSSGKHYGVYPCEGCKGFFKRTVRKDLTYTCRDNKDCLIDKRQRNRCQYCRYQKCLAMGMKREAVQEE [S20P], the abundance fitness was -0.09 ± 0.03.

KHICAICGDRSSGKHYGVYMCEGCKGFFKRTVRKDLTYTCRDNKDCLIDKRQRNRCQYCRYQKCLAMGMKREAVQEE [S20M]: the abundance fitness was -0.027 ± 0.035.

KHICAICGDRSSGKHYGVYLCEGCKGFFKRTVRKDLTYTCRDNKDCLIDKRQRNRCQYCRYQKCLAMGMKREAVQEE [S20L]: the abundance fitness was found to be 0.05 ± 0.026.

For KHICAICGDRSSGKHYGVYDCEGCKGFFKRTVRKDLTYTCRDNKDCLIDKRQRNRCQYCRYQKCLAMGMKREAVQEE [S20D], the abundance fitness is -0.276 ± 0.036.

Turning to KHICAICGDRSSGKHYGVYNCEGCKGFFKRTVRKDLTYTCRDNKDCLIDKRQRNRCQYCRYQKCLAMGMKREAVQEE [S20N], the abundance fitness amounted to 0.031 ± 0.032.

As for KHICAICGDRSSGKHYGVYHCEGCKGFFKRTVRKDLTYTCRDNKDCLIDKRQRNRCQYCRYQKCLAMGMKREAVQEE [S20H], the abundance fitness worked out at 0.015 ± 0.03.

In the case of KHICAICGDRSSGKHYGVSSCEGCKGFFKRTVRKDLTYTCRDNKDCLIDKRQRNRCQYCRYQKCLAMGMKREAVQEE [Y19S], the abundance fitness is -0.067 ± 0.029.

Consider KHICAICGDRSSGKHYGVASCEGCKGFFKRTVRKDLTYTCRDNKDCLIDKRQRNRCQYCRYQKCLAMGMKREAVQEE [Y19A], for which the abundance fitness is -0.036 ± 0.033.

With KHICAICGDRSSGKHYGVMSCEGCKGFFKRTVRKDLTYTCRDNKDCLIDKRQRNRCQYCRYQKCLAMGMKREAVQEE [Y19M], the abundance fitness is -0.015 ± 0.036.

Take KHICAICGDRSSGKHYGVGSCEGCKGFFKRTVRKDLTYTCRDNKDCLIDKRQRNRCQYCRYQKCLAMGMKREAVQEE [Y19G]: the abundance fitness was -0.207 ± 0.037.

As for KHICAICGDRSSGKHYGVLSCEGCKGFFKRTVRKDLTYTCRDNKDCLIDKRQRNRCQYCRYQKCLAMGMKREAVQEE [Y19L], the abundance fitness was -0.04 ± 0.029.

For KHICAICGDRSSGKHYGVDSCEGCKGFFKRTVRKDLTYTCRDNKDCLIDKRQRNRCQYCRYQKCLAMGMKREAVQEE [Y19D], the abundance fitness was -0.041 ± 0.038.

Take KHICAICGDRSSGKHYGVKSCEGCKGFFKRTVRKDLTYTCRDNKDCLIDKRQRNRCQYCRYQKCLAMGMKREAVQEE [Y19K]: the abundance fitness was -0.032 ± 0.035.

With KHICAICGDRSSGKHYGVISCEGCKGFFKRTVRKDLTYTCRDNKDCLIDKRQRNRCQYCRYQKCLAMGMKREAVQEE [Y19I], the abundance fitness was -0.107 ± 0.041.

For KHICAICGDRSSGKHYGVRSCEGCKGFFKRTVRKDLTYTCRDNKDCLIDKRQRNRCQYCRYQKCLAMGMKREAVQEE [Y19R], the abundance fitness is -0.097 ± 0.031.

As to KHICAICGDRSSGKHYGVHSCEGCKGFFKRTVRKDLTYTCRDNKDCLIDKRQRNRCQYCRYQKCLAMGMKREAVQEE [Y19H], the abundance fitness was -0.068 ± 0.041.

In the case of KHICAICGDRSSGKHYGVPSCEGCKGFFKRTVRKDLTYTCRDNKDCLIDKRQRNRCQYCRYQKCLAMGMKREAVQEE [Y19P], the abundance fitness amounted to 0.006 ± 0.037.

Turning to KHICAICGDRSSGKHYGVTSCEGCKGFFKRTVRKDLTYTCRDNKDCLIDKRQRNRCQYCRYQKCLAMGMKREAVQEE [Y19T], the abundance fitness was -0.073 ± 0.035.

As for KHICAICGDRSSGKHYGVCSCEGCKGFFKRTVRKDLTYTCRDNKDCLIDKRQRNRCQYCRYQKCLAMGMKREAVQEE [Y19C], the abundance fitness is -0.116 ± 0.041.

Turning to KHICAICGDRSSGKHYGVESCEGCKGFFKRTVRKDLTYTCRDNKDCLIDKRQRNRCQYCRYQKCLAMGMKREAVQEE [Y19E], the abundance fitness was -0.047 ± 0.038.

For the origin of these results see the Human Domainome abundance scans (Beltran et al. 2025).
